Experimental data as given in patent publication US20230167164A1.

Molecular target: IFN-γ receptor (UniProt P15260)
Assay: cell-based or functional assay

Chain of IFN-γ receptor (P15260 18-489 limits assumed, chain 1 of 2): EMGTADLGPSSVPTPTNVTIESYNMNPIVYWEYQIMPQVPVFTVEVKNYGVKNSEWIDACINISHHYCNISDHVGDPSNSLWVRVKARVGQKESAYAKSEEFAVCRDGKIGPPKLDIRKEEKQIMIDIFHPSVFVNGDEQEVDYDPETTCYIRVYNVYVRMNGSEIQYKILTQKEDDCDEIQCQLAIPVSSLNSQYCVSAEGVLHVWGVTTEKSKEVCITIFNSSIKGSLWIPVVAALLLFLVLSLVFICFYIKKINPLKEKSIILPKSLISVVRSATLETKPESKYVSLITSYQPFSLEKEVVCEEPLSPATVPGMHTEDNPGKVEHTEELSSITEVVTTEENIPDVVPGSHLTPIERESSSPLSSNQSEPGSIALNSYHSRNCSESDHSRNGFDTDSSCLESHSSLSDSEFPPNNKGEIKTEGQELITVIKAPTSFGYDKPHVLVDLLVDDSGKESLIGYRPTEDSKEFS
Chain of IFN-γ receptor (P38484 22-337 limits assumed, chain 2 of 2, further chain): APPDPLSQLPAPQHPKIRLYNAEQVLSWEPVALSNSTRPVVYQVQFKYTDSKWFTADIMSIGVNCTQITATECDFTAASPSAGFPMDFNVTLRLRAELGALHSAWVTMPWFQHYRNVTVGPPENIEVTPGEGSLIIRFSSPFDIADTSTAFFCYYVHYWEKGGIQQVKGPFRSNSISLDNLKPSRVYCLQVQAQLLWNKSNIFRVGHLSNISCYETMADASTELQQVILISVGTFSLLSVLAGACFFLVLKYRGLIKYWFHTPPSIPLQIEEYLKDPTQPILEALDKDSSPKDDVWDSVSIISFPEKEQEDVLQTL

- PD-L1 expression induced on HEK-CD4-IFN-γ cells, MFI of anti-PD-L1 APC staining: 67 MFI
- PD-L1 expression induced on HEK-IFN-γ cells, MFI of anti-PD-L1 APC staining: 75 MFI
Substance: recombinant IFN-γ (free state) (from UniProt P01579 24-166) (ligand)
